B1: 175-307 deletion: SpCas9 mutation relative to SEQ ID NO: 18 (protein)
chain: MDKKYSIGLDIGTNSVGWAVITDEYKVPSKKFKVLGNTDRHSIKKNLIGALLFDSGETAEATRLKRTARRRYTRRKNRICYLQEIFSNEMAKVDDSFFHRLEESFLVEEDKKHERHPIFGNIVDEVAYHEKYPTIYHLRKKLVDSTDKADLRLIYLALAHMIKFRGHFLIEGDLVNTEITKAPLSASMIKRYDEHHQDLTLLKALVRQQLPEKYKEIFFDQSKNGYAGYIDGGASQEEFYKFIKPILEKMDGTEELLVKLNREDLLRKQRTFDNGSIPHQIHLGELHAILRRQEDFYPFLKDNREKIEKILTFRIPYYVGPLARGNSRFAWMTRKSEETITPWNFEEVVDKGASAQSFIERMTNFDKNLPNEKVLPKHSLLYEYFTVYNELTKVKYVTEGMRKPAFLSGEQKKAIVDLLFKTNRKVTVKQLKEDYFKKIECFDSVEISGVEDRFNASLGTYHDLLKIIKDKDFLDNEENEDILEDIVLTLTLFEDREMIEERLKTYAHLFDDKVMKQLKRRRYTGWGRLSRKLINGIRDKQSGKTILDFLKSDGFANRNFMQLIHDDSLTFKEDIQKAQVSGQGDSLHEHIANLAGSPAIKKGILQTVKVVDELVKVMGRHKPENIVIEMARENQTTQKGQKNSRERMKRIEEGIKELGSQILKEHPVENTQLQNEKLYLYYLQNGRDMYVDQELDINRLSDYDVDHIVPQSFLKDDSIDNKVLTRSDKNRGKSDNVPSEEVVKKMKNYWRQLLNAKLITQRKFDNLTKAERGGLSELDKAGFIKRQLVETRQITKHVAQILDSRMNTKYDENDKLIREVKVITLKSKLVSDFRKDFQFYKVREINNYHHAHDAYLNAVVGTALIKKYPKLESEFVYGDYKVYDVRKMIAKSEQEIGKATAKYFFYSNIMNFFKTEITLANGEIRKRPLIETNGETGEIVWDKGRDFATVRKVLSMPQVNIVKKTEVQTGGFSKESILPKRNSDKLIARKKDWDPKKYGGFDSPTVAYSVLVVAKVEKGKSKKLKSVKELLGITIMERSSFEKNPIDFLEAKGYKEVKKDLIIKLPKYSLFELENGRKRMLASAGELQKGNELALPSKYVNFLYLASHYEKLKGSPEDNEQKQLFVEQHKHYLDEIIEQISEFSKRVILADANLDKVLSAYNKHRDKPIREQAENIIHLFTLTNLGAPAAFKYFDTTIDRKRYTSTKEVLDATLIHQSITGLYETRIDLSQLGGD
modifications: Streptococcus pyogenes
B2: 1024-CFN: intein-split PE with extein residues mutated to Npu-native CFN (protein)
chain: MKRTADGSEFESPKKKRKVIKIATRKYLGKQNVYDIGVERDHNFALKNGFIASNCFNEIGKATAKYFFYSNIMNFFKTEITLANGEIRKRPLIETNGETGEIVWDKGRDFATVRKVLSMPQVNIVKKTEVQTGGFSKESILPKRNSDKLIARKKDWDPKKYGGFDSPTVAYSVLVVAKVEKGKSKKLKSVKELLGITIMERSSFEKNPIDFLEAKGYKEVKKDLIIKLPKYSLFELENGRKRMLASAGELQKGNELALPSKYVNFLYLASHYEKLKGSPEDNEQKQLFVEQHKHYLDEIIEQISEFSKRVILADANLDKVLSAYNKHRDKPIREQAENIIHLFTLTNLGAPAAFKYFDTTIDRKRYTSTKEVLDATLIHQSITGLYETRIDLSQLGGDSGGSSGGSSGSETPGTSESATPESSGGSSGGSSTLNIEDEYRLHETSKEPDVSLGSTWLSDFPQAWAETGGMGLAVRQAPLIIPLKATSTPVSIKQYPMSQEARLGIKPHIQRLLDQGILVPCQSPWNTPLLPVKKPGTNDYRPVQDLREVNKRVEDIHPTVPNPYNLLSGLPPSHQWYTVLDLKDAFFCLRLHPTSQPLFAFEWRDPEMGISGQLTWTRLPQGFKNSPTLFNEALHRDLADFRIQHPDLILLQYVDDLLLAATSELDCQQGTRALLQTLGNLGYRASAKKAQICQKQVKYLGYLLKEGQRWLTEARKETVMGQPTPKTPRQLREFLGKAGFCRLFIPGFAEMAAPLYPLTKPGTLFNWGPDQQKAYQEIKQALLTAPALGLPDLTKPFELFVDEKQGYAKGVLTQKLGPWRRPVAYLSKKLDPVAAGWPPCLRMVAAIAVLTKDAGKLTMGQPLVILAPHAVEALVKQPPDRWLSNARMTHYQALLLDTDRVQFGPVVALNPATLLPLPEEGLQHNCLDILAEAHGTRPDLTDQPLPDADHTWYTDGSSLLQEGQRKAGAAVTTETEVIWAKALPAGTSAQRAELIALTQALKMAEGKKLNVYTDSRYAFATAHIHGEIYRRRGWLTSEGKEIKNKDEILALLKALFLPKRLSIIHCPGHQKGHSAEARGNRMADQAARKAAITETPDTSTLLIENSSPSGGSKRTADGSEFEPKKKRK

Legend:
[1] = test system: DNA; conditions: mutation relative to canonical SpCas9, SEQ ID NO: 18; cited from earlier work
[2] = test system: HEK cells; assay: Npu intein-split prime editors, plasmid transfection of HEK cells, high-throughput sequencing; format: cell-based; conditions: plasmids, split site 1023/1024
Source text: This Example is focused on a PE fusion protein comprising the canonical SpCas9 (SEQ ID NO: 18). The split sites for other Cas9 proteins may be the corresponding same site, or may need to be optimized for each different Cas9 protein. In the instant Example, the prime editor was split between residues 1023 and 1024 of SpCas9 (SEQ ID NO: 18). This is referred to as the “1023/1024” split site.
Prime editors (PEs) exceed the AAV packaging capacity.
It was therefore determined whether mutation from the Cas9-native “SEQ” towards the Npu intein “CFN” sequence altered efficiency of prime editing.

Molecule	decreased DNA cleavage [1]	prime editing activity compared with full-length PE3 [2]
B1	About 50% decreased DNA cleavage	
B2		recapitulates full-length PE3 activity

— US20230078265A1, “METHODS AND COMPOSITIONS FOR EDITING NUCLEOTIDE SEQUENCES” (The Broad Institute, Inc., priority 2019, published 2023)
